The results in this text go back to IntAct's records for PubMed 19416828.

First the molecules themselves.
B1: Splicing factor rtf2 (Schizosaccharomyces pombe (strain ATCC 38366 / 972)), Q10154 (parent)
chain: MGNDGGSLPTRNELVKEPGKVPPLDIDFKRSVKSSQFSQCAITDEPLYPPIVSCGLGKLYNKASILQMLLDRSSVPKSPSHIKSLKDVVQLQVELDDSGKVLWLCPITRHVMSDTYQFAYIVPCGHVFEYSALKQFGEKMCFQCNQVYEEKDVIPINPNAEQLKTLSKRLLDLALSEKTHSLNKASKKSNKNGDKKRKHVSKSNSKHAKHELRTNRMLDGENVKSETSVTDMERVKRVKI
partner: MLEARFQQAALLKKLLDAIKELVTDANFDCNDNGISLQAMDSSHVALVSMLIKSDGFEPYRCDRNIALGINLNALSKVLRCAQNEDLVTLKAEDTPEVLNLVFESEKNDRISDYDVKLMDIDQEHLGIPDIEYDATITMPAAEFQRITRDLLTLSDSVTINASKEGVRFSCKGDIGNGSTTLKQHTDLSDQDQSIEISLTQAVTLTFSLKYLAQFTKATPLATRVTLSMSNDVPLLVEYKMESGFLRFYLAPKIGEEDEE

Variants of B1 are the subject of the experiment. The settings on record: with pcna_schpo pcn1, Q03392.
As for C141G, the “effect of a mutation on the interaction” value is reported as “disrupting interaction”.
